Molecular target: T1, CD6 lymphocyte surface receptor (human (endogenous in PBMC)) (UniProt P30203)
T1 sequence: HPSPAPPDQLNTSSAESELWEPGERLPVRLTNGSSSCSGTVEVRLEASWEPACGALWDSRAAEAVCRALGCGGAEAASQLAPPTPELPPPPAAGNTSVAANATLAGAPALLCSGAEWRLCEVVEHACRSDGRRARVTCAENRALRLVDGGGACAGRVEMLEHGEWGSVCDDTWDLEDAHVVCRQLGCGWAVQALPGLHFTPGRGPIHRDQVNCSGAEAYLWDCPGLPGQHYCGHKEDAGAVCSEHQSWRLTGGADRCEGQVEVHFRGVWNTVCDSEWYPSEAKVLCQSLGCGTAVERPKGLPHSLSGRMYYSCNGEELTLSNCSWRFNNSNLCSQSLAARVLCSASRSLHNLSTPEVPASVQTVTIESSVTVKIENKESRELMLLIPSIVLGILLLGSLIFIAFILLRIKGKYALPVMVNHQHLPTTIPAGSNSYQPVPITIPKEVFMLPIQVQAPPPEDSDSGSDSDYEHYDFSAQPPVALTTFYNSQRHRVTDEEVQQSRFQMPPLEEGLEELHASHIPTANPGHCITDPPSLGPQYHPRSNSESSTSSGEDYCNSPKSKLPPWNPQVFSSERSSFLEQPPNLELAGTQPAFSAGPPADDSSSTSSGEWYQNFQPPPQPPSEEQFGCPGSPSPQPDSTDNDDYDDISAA

B1: Recombinant Human ALCAM/CD166 Fc Chimera (Fc fusion)
chain: WYTVNSAYGDTIIIPCRLDVPQNLMFGKWKYEKPDGSPVFIAFRSSTKKSVQYDDVPEYKDRLNLSENYTLSISNARISDEKRFVCMLVTEDNVFEAPTIVKVFKQPSKPEIVSKALFLETEQLKKLGDCISEDSYPDGNITWYRNGKVLHPLEGAVVIIFKKEMDPVTQLYTMTSTLEYKTTKADIQMPFTCSVTYYGPSGQKTIHSEQAVFDIYYPTEQVTIQVLPPKNAIKEGDNITLKCLGNGNPPPEEFLFYLPGQPEGIRSSNTYTLTDVRRNATGDYKCSLIDKKSMIASTAITVHYLDLSLNPSGEVTRQIGDALPVSCTISASRNATVVWMKDNIRLRSSPSFSSLHYQDAGNYVCETALQEVEGLKKRESLTLIVEGKPQIKMTKKTDPSGLSKTIICHVEGFPKPAIQWTITGSGSVINQTEESPYINGRYYSKIIISPEENVTLTCTAENQLERTVNSLNVSAISIPEHDEADEISDENREKVNDQAK
  tyrosine phosphorylation of CD6 immunoprecipitated from human PBMC plated on plate-bound ALCAM (immunoblot for p-Tyr): > 2.5 fold
